From US20140357838A1, “N-Terminally Modified Insulin Derivatives” (Novo Nordisk A/S, priority 2011, published 2014)
Starred links: 1 amine or outer side, 2 acyl side, 3 side chain; linkers in the order of their positions; H or OH if unused. Positions of bridges follow the written chain, without caps; N, C: chain ends. Groups on a side chain read outwards from the residue. Chains are numbered I, II in the order given. No end group written: not given here. *: point of attachment. Phe(Nα-CONH2) = NC(=O)N[C@@H](Cc1ccccc1)C(=O)*; C20 diacid = O=C(O)CCCCCCCCCCCCCCCCCCC(=O)*; C18 diacid = O=C(O)CCCCCCCCCCCCCCCCC(=O)*; NMe2Phe = CN(C)[C@@H](Cc1ccccc1)C(=O)*; γGlu = O=C(O)[C@H](CCC(=O)[*:2])N[*:1]; Hydantoyl = NC(=O)NCC(=O)*; AEEA = NCCOCCOCC(=O)O; Me2Gly = CN(C)CC(=O)*

Key:
duodenum lumen enzymes = test: Degradation of insulin analogs using duodenum lumen enzymes; type: in vitro ADME; conditions: rat duodenum lumen enzymes, 100 mM Hepes pH 7.4, 37° C.; degradation half time divided by that of reference insulin
Experimental: Degradation of insulin analogs using duodenum lumen enzymes (prepared by filtration of duodenum lumen content) from SPD rats. The assay is performed by a robot in a 96 well plate (2 ml) with 16 wells available for insulin analogs and standards. Insulin analogs ˜15 μM are incubated with duodenum enzymes in 100 mM Hepes, pH=7.4 at 37° C., samples are taken after 1, 15, 30, 60, 120 and 240 min and reaction quenched by addition of TFA. Intact insulin analogs at each point are determined by RP-HPLC. […] The amount of enzymes added for the degradation is such that the half time for degradation of the reference insulin is between 60 min and 180 min.

[1] = Hydrophobicity by isocratic reverse phase HPLC; type: physicochemical; conditions: k'rel, isocratic RP-HPLC, pH 7.3, human insulin = 1
Experimental: The hydrophobicity of an N-terminally modified insulin is found by reverse phase HPLC run under isocratic conditions. […] The hydrophobicity, k′rel, is calculated as: k′relderiv=((tderiv−t0)(tref−t0)*k′relref. Using HI as reference: k′relref=k′relHI=1. The void time of the HPLC system, t0, is determined by injecting 5 μl of 0.1 mM NaNO3. Running conditions:
Column: Lichrosorb RP-C18, 5 μm, 4×250 mm
Buffer A: 0.1 M natrium phosphate pH 7.3, 10 vol % CH3CN
After running an initial gradient, the isocratic level for running the derivative and reference (for example HI) is chosen, and the elution times of the derivative and reference under isocratic conditions are used in the above equation to calculate k′relderiv.

human insulin receptor [2] = molecular target: T1, human insulin receptor (Homo sapiens, UniProt P06213); test: Insulin receptor affinity, SPA antibody capture assay (0% HSA); type: binding; conditions: relative to the affinity of human insulin
Experimental: (§1) SPA-PVT antibody-binding beads, anti-mouse reagent (Amersham Bio-sciences, Cat No. PRNQ0017) are mixed with 25 ml of binding buffer (100 mM HEPES pH 7.8; 100 mM sodium chloride, 10 mM MgSO4, 0.025% Tween-20). […] A total of 100 μl reagent mix is then added to each well in the Packard Optiplate and a dilution series of the N-terminally modified insulin is made in the Optiplate from appropriate samples. The samples are then incubated for 16 hours while gently shaken. The phases are the then separated by centrifugation for 1 min and the plates counted in a Topcounter.

human insulin receptor [3] = molecular target: T1, human insulin receptor; test: Insulin receptor affinity, SPA assay with […] HSA in binding buffer; conditions: relative to the affinity of human insulin
Experimental: as §1

[4] = Chemical stability of insulin derivatives in 2 mM phosphate (SEC-HPLC and RP-HPLC); type: physicochemical; conditions: 4 weeks 37° C. minus 5° C. start sample; for HMWP Formation (%) (4 weeks 37° C.- 0 weeks 5° C.): pH 7.5, SEC-HPLC
Experimental: Chemical stability of an insulin derivative is assessed after incubating insulin derivative in 2 mM phosphate, pH=7.5 at 37° C. for up to 8 weeks. Formation of high molecular weight products (HMWP) is determined by SEC HPLC analysis after 0, 2, 4 and optionally 8 weeks. The results of the SEC method are given as a difference between HMWP formation at 37° C. and 5° C. start sample as a percentage of total absorbance at 215 nm. Chemical degradation products are determined by RP HPLC analysis after 0, 2, 4 and optionally 8 weeks. The results of the RP method are given as a difference between chemical degradation observed at 37° C. and 5° C. start sample as a percentage of total absorbance at 215 nm.
• Solvent: 500 mM NaCl, 10 mM NaH2PO4, 5 mM H3PO4, 50% (v/v) 2-propanol • Flow: 0.5 ml/min • Run time: 30 min • UV Detection: 215 nm • Column: Insulin HMWP column from Waters 7.8×300 mm • Temperature: 50° C.
• Solvent A: 0.09M phosphate buffer pH 3.6 (di-ammoniumhydrogenphosphate), 10% MeCN (v/v) • Solvent B: 80% MeCN (v/v %) • Flow: 0.3 ml/min • Runtime: 33 min • UV Detection: 215 nm • Column: Waters Acquity BEH130 C18 Column 1.7 μm, 150×2.1 mm • Temperature: 50° C. • Gradient: […]

[5] = Thioflavin T (ThT) fibrillation assay; type: physicochemical; conditions: same experiment as prior art derivatives, 37° C., 960 rpm, pH 7.4, mean ± SD
Source text: This has traditionally been measured by visual inspection of the sample. However, that kind of measurement is very subjective and depending on the observer. Therefore the application of a small molecule indicator probe is much preferred. […] The time course for fibril formation can be described by a sigmoidal curve with the following expression (Nielsen at al. Biochemistry 40, 6036-6046, 2001):
Here, F is the ThT fluorescence at the time t. The constant t0 is the time needed to reach 50% of maximum fluorescence. The two important parameters describing fibril formation are the lag-time calculated by t0-2[…] and the apparent rate constant kapp=1/{tilde over (□)}.
Samples were prepared freshly before each assay. Each analog was dissolved in 2 mM sodium phosphate, pH=7.4. Thioflavin T was added to the samples from a stock solution in water to a final concentration of 1 μM. Sample aliquots of 200 μl were placed in a 96 well microtiter plate (Packard Optiplate™-96, white polystyrene). Usually four replica of each sample (corresponding to one test condition) were placed in one column of wells. The plate was sealed with Scotch Pad (Qiagen).
Incubation at given temperature, shaking and measurements of the ThT fluorescence emission were done in either a Fluoroskan Ascent FL or Varioskan fluorescence plate reader (thermo Labsystems). The temperature was adjusted to 37° C. […] Fluorescence measurements were done using excitation through a 444 nm filter and measurement of emission through a 485 nm filter.
Each run was initiated by incubating the plate at the assay temperature for 10 min. The plate was measured every 20 minutes for typically 45 hours. Between each measurement, the plate was shaken and heated as described above.
The measurement data points were saved in Microsoft Excel format for further processing and curve drawing and fitting was performed using Graph Pad Prism. […] The data points are typically a mean of four samples. Only data obtained in the same experiment (i.e. samples on the same plate) are presented in the same graph ensuring a relative measure of fibrillation between the individual samples of one assay rather then comparison between different assays. The data set may be fitted to Eq. (1). However since the full sigmoidal curves are not usually achieved during the measurement time, the degree of fibrillation is expressed as ThT fluorescence at various time points calculated as the mean of the four samples and shown with the standard deviation

Primary rat adipocytes = test: Lipogenesis in rat adipocytes; type: cell-based; conditions: relative potency vs human insulin
Source text: As a measure of in vitro potency of the insulins of the invention, lipogenesis can be used.
The labelled glucose is converted into extractable lipids in a dose dependent way, resulting in full dose response curves.

T1 sequence (P06213 28-746 isoform P06213-2 limits assumed): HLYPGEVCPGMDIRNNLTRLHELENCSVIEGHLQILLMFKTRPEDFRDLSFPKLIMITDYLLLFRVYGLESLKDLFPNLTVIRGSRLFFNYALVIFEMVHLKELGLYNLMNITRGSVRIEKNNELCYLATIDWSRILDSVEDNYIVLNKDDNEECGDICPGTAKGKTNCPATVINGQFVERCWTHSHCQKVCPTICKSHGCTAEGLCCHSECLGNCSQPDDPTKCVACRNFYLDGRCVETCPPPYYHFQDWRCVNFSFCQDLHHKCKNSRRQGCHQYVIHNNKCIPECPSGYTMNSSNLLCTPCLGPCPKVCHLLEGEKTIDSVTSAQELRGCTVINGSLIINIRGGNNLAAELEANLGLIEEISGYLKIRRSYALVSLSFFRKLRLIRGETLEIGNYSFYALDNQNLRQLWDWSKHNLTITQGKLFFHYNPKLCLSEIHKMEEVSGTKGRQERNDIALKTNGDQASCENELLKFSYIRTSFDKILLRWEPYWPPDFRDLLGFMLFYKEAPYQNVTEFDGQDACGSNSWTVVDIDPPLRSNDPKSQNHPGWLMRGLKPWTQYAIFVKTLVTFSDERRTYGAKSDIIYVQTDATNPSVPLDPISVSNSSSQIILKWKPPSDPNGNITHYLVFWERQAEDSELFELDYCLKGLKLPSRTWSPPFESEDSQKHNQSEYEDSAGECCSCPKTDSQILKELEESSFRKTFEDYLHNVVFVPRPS
T1 sequence (P06213 763-1382 partner limits assumed): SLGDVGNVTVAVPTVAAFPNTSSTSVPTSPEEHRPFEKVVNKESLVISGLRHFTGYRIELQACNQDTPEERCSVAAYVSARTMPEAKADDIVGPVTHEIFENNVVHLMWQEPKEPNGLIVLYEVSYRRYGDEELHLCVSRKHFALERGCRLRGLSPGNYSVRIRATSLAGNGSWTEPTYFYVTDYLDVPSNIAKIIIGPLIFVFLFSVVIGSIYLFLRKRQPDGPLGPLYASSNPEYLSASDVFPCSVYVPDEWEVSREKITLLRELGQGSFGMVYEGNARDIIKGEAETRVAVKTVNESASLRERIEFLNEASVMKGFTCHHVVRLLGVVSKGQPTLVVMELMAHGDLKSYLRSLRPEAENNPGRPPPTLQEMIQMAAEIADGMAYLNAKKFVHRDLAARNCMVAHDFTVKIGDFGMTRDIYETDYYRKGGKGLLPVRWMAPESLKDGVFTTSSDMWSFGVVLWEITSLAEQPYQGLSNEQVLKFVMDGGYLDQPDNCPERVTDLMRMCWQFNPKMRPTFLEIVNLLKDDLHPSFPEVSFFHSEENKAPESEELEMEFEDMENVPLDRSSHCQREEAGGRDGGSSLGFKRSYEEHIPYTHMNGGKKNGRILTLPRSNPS

Substance | Stability towards duodenum lumen enzymes (fold relative to A14E, B25H, desB30 human insulin) (duodenum lumen enzymes) [fold] | Hydrophobicity rel. to human insulin [1] | Relative IR-A affinity (@ 0% HSA) (%) (human insulin receptor [2]) | Relative IR-A affinity (@ […] HSA) (%)e (human insulin receptor [3]) [%] | Chemical degradation (%) (4 weeks 37° C.- 0 weeks 5° C.) ([4]; pH 7.5, RP-HPLC) | HMWP Formation (%) (4 weeks 37° C.- 0 weeks 5° C.) [4] | ThT 0 h [5] | ThT 5 h [5] | ThT 10 h [5] | ThT 30 h [5] | ThT 40 h [5] | Lipogenesis in rat adipocytres (@ 0.1% HSA) rel. to human insulin (%) (Primary rat adipocytes)
I: NMe2Phe-VCQHLCGSHLVEALHLVCGERGFHYTPK([AEEA-AEEA-γGlu-C20 diacid]) / II: Me2Gly-IVEQCCTSCCSLEQLENYCN (disulfide I:2-II:9, I:6-II:6, I:18-II:19, II:5-II:10) [Example 28, A1(N^α,N^α-Dimethyl), A10C, A14E, B1(N^α,N^α-dimethyl), B3C, B16H, B25H, B29K(N^εeicosanedioyl-gGlu-2×OEG), desB30 Human Insulin] | 1.6 | 0.298 | 0.1 | 0.01 | – | – | – | – | – | – | – | –
I: NMe2Phe-VCQHLCGSHLVEALYLVCGERGFHYPK([AEEA-AEEA-γGlu-C18 diacid]) / II: Me2Gly-IVEQCCTSCCSLEQLENYCN (disulfide I:2-II:9, I:6-II:6, I:18-II:19, II:5-II:10) [Example 11, A1(N^α,N^α-Dimethyl), A10C, A14E, B1(N^α,N^α-dimethyl), B3C, B25H, desB27, B29K(N^εoctadecanedioyl-gGlu-2×OEG), desB30 Human Insulin] | – | 0.095 | 0.6 | 0.04 | 3.2 | −0.2 | 31 ± 0.4 | 23 ± 0.4 | 23 ± 0.6 | 21 ± 0.2 | 21 ± 0.3 | –
I: NMe2Phe-VCQHLCGSHLVEALYLVCGERGFHYTPK([AEEA-AEEA-γGlu-C20 diacid]) / II: Me2Gly-IVEQCCTSCCSLEQLENYCN (disulfide I:2-II:9, I:6-II:6, I:18-II:19, II:5-II:10) [Example 2, A1(N^α,N^α-Dimethyl), A10C, A14E, B1(N^α,N^α-dimethyl), B3C, B25H, B29K(N^εeicosanedioyl-gGlu-2×OEG), desB30 Human Insulin] | – | 0.38 | – | – | – | 0.0 | 35 ± 0.9 | 22 ± 0.4 | 22 ± 0.3 | 20 ± 0.3 | 19 ± 0.3 | 0.025
I: {Phe(Nα-CONH2)}-VCQHLCGSHLVEALYLVCGERGFFYPK([AEEA-AEEA-γGlu-C18 diacid]) / II: Hydantoyl-IVEQCCTSCCSLEQLENYCN (disulfide I:2-II:9, I:6-II:6, I:18-II:19, II:5-II:10) [Example 33, A1(N^α-Carbamoyl), A10C, A14E, B1(N^α-carbamoyl), B3C, desB27, B29K(N^εoctadecanedioyl-gGlu-2×OEG), desB30 Human Insulin] | 1.6 | – | 0.6 | – | – | – | – | – | – | – | – | –
I: {Phe(Nα-CONH2)}-VCQHLCGSHLVEALYLVCGERGFHYPK([AEEA-AEEA-γGlu-C20 diacid]) / II: Hydantoyl-IVEQCCTSCCSLEQLENYCN (disulfide I:2-II:9, I:6-II:6, I:18-II:19, II:5-II:10) [Example 46, A1(N^α-Carbamoyl), A10C, A14E, B1(N^α-carbamoyl), B3C, B25H, desB27, B29K(N^εeicosanedioyl-gGlu-2×OEG), desB30 Human Insulin] | 1.2 | 0.132 | 0.1 | 0.01 | – | – | – | – | – | – | – | –
I: {Phe(Nα-CONH2)}-VCQHLCGSHLVEALYLVCGERGFHYPK([γGlu-C18 diacid]) / II: Hydantoyl-IVEQCCTSCCSLEQLENYCN (disulfide I:2-II:9, I:6-II:6, I:18-II:19, II:5-II:10) [Example 34, A1(N^αCarbamoyl), A10C, A14E, B1(N^αcarbamoyl), B3C, B25H, desB27, B29K(N^εoctadecanedioyl-gGlu), desB30 Human Insulin] | 1.8 | – | 0.1 | 0.00 | – | – | 20 ± 0.1 | 13 ± 0.7 | 13 ± 0.8 | 13 ± 0.4 | 13 ± 0.3 | –
